Patent US20220396632A1 (VERSEAU THERAPEUTICS, published 2022)
Numbering of substitutions follows the chain as printed. No end group written: not given here.

Tests used:
[1] = molecular target: T1, Biotin PSGL-1(42-62) peptide, unmodified (human, C-terminal Lys-biotin); experiment: ELISA, plate-bound peptide
T1 construct: Residues 42-62 followed by GGGK-biotin; also called WT; wild-type
T1 peptide: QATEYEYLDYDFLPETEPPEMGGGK

[2] = molecular target: T2, E61A (C-terminal Lys-biotin); experiment: alanine-scan ELISA, streptavidin-immobilized biotin peptide
T2 construct: alanine-scan peptide; also called Biotin PSGL-1(42-62) E61A peptide; 61E
T2 peptide: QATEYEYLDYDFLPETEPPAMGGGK

[3] = molecular target: T3, Biotin PSGL-1(42-62) Y51A peptide (C-terminal Lys-biotin); experiment: as above
T3 peptide: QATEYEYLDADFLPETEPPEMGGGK

[4] = molecular target: T4, Biotin PSGL-1(42-62) Y46A peptide (C-terminal Lys-biotin); experiment: as above
T4 peptide: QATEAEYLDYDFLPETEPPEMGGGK

[5] = molecular target: T5, T57A (C-terminal Lys-biotin); experiment: as above
T5 construct: alanine-scan peptide; also called Biotin PSGL-1(42-62) T57A peptide; 57T
T5 peptide: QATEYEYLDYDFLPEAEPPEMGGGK

[6] = molecular target: T6, Biotin PSGL-1(42-62) E45A peptide (C-terminal Lys-biotin); experiment: as above
T6 peptide: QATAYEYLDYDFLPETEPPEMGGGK

[7] = molecular target: T7, E47A (C-terminal Lys-biotin); experiment: as above
T7 construct: alanine-scan peptide; also called Biotin PSGL-1(42-62) E47A peptide; 47E
T7 peptide: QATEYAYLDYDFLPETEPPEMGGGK

[8] = molecular target: T8, M62A (C-terminal Lys-biotin); experiment: as above
T8 construct: alanine-scan peptide; also called Biotin PSGL-1(42-62) M62A peptide; 62M
T8 peptide: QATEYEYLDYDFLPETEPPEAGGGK

[9] = molecular target: T9, P60A (C-terminal Lys-biotin); experiment: as above
T9 construct: alanine-scan peptide; also called Biotin PSGL-1(42-62) P60A peptide; 60P
T9 peptide: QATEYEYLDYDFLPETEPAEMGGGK

[10] = molecular target: T10, Q42A (C-terminal Lys-biotin); experiment: as above
T10 construct: alanine-scan peptide; also called Biotin PSGL-1(42-62) Q42A peptide; 42Q
T10 peptide: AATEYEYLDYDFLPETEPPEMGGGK

[11] = molecular target: T11, Y48A (C-terminal Lys-biotin); experiment: as above
T11 construct: alanine-scan peptide; also called Biotin PSGL-1(42-62) Y48A peptide; 48Y
T11 peptide: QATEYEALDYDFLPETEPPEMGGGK

[12] = molecular target: T12, E58A (C-terminal Lys-biotin); experiment: as above
T12 construct: alanine-scan peptide; also called Biotin PSGL-1(42-62) E58A peptide; 58E
T12 peptide: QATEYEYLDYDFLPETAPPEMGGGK

[13] = molecular target: T13, T44A (C-terminal Lys-biotin); experiment: as above
T13 construct: alanine-scan peptide; also called Biotin PSGL-1(42-62) T44A peptide; 44T
T13 peptide: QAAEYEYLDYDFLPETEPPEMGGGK

[14] = molecular target: T14, P59A (C-terminal Lys-biotin); experiment: as above
T14 construct: alanine-scan peptide; also called Biotin PSGL-1(42-62) P59A peptide; 59P
T14 peptide: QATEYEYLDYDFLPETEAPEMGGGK

[15] = molecular target: T15, Biotin PSGL-1(42-62) F53A peptide (C-terminal Lys-biotin); experiment: ELISA, streptavidin-bound Ala peptide
T15 peptide: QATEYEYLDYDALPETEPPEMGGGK

[16] = molecular target: T1, Biotin PSGL-1(42-62) peptide, unmodified; experiment: capture ELISA; against 3 x sY peptide
Method: (§1) Two ELISA methods were performed. One procedure detected mAb binding to its plate-immobilized target and the other measured the immobilized antibody's ability to capture biotinylated PSGL-1₄₂₋₆₂. […] The plate was incubated for 45 min at 37° C. Plates were washed 3 times with wash buffer (PBS containing 0.05% tween 20, pH 7.4) and a single concentration (2 to 500 nM) or serially diluted (0.002-100 nM) anti-PSGL-1 mAb was added (25 ul/well) in assay buffer into appropriate wells. The plate was incubated for 45 min at 37° C., washed 3 times, and an appropriate HRP-conjugated secondary antibody added (25 ul/well) (HRP goat anti-mouse or anti-human IgG). After 45 min incubation at 37° C., the plate was washed, and antibody bound to plate-immobilized target was determined at A450 nm using HRP substrate (3,3′,5,5′-etramethylbenzidine (TMB)). For each antibody, duplicate values were averaged and assay background was subtracted. Except for the following, ELISAs involving plate-immobilized mAb capturing of biotinylated PSGL-1₄₂₋₆₂ peptides was performed in the same manner as described above: 3 ug/mL/25 ul per well of mAb was coated directly onto microtiter plate wells; biotinylated unmodified or sulfotyrosine PSGL-1₄₂₋₆₂ was serially diluted (3 nM-3 uM) into appropriate wells, and antibody-bound peptide was detected using HRP-streptavidin (Jackson Immunoresearch, Cat. #016-030-084).

[17] = molecular target: T1, Biotin PSGL-1(42-62) peptide, unmodified; experiment: ELISA, plate-bound mAb captures biotin peptide
Method: as §1

[18] = molecular target: T16, PSGL-1(49-56)-Biotin (human, UniProt Q14242); experiment: ELISA, plate-immobilized biotin peptide
T16 construct: synthetic peptide; also called short PSGL-1 49-56 peptide with C-terminal biotin
T16 peptide (looked up): LDYDFLPE-biotin

[19] = molecular target: T3, Biotin PSGL-1(42-62) Y51A peptide; experiment: ELISA, streptavidin-bound Ala peptide
[20] = molecular target: T17, Biotin PSGL-1(42-62) L49A peptide (C-terminal Lys-biotin); experiment: ELISA, streptavidin-bound Ala peptide
T17 peptide: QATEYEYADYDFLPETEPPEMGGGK

[21] = molecular target: T18, Biotin PSGL-1(42-62) L54A peptide (C-terminal Lys-biotin); experiment: ELISA, streptavidin-bound Ala peptide
T18 peptide: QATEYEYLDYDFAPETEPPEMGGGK

B1: 10F01 (antibody, IgG4, V domains shown)
VH: EVQLVQSGGGLVQPGGSLRLSCAASGFTFSSYAMSWVRQAPGKGLEWVSALRGGDGGTYHADSVKGRFTISGDSSKNTLYLQMNSLRAEDTAVYYCARRMVGAAYAFDIWGQGTMVTVSS
VL: LPVLTQPHSVSESPGKTVTISCTRSSGSIADNFVQWYRQRPGSAPTTVIYEGDQRPSGVPGRFSGSIDSSSNSASLTISGLQTDDEADYYCQSFDSYNRRTHVVFGGGTKLTVL
- fold weaker binding than to sulfotyrosine PSGL-1 42-62 [1]: > 500 fold

B2: 18F02 (antibody, V domains shown)
VH: QVQLQQPGAELVKPGASVKLSCKASGYTFTSYWMHWVKQRPGQGLEWIGMIHPNSGRTNYNEKFKSKATLTVDKSSSTAYMQLSSLTSEDSAVYYCARSDYWGQGTTLTVSS
VL: DIVMTQAAFSNPVTLGTSASISCRSSKSLLHSDGITYLYWFLQRPGQSPQLLIYRMSNLASGVPDRFSGSGSGTDFTLRISRVEAEDVGVYYCAQMLEFPRTFGGGTKLEIK
notes: From mouse immunisation; only variable domains given
- binding result [2]: binds
- binding result [3]: binds
- binding result [4]: binds
- binding result [5]: binds
- binding result [6]: binds
- binding result [7]: binds
- binding result [8]: binds
- binding result [9]: binds
- binding result [10]: binds
- binding result [11]: binds
- binding result [12]: binds
- binding result [13]: binds
- binding result [14]: binds
- EC50 [15]: 7.1 nM

B3: 03D07 (antibody, IgG4, V domains shown)
VH: EVKLLESGGGLVQPGGSLRLSCAASGFTFSSYALSWVRQAPGKGLEWVSAISGSGGNTYYADSVKGRFTISRDNSKNTLYLQMNSLRAEDTAVYYCAKVVGATNYWGQGTLVTVSS
VL: DIVMTQTPLSLPVTLGQPASISCRSSQSLVYSDGHTYLSWFHQRPGQSPRRLIYKVSIRDSGVPDRFSGSGSGTDFTLKISRVEAEDVGVYYCMQRLQIPLTFGGGTKVEIK
- EC50/EC50 3x(SO3)Y [16]: > 100 fold
- EC50 [17]: > 3000 nM

B4: 20I15 (antibody, V domains shown)
VH: EVKLVESGGGLVQPGGSLSLSCAASGFTFTDYYMSWVRQPPGKALEWLGFIRNKANGYTTEYSASVKGRFTISRDNSQSILYLQMNALRAEDSATYYCARTYLRRGYFDVWGTGTTVTVSS
VL: DIVLTQSPASLAVSLGQRATISCRASKSVSTSGYSYMHWFQQKPGQPPKLLIYLASNLESGVPARFSGSGSGTDFTLNIHPVEEEDAATYYCQHSRELPLTFGAGTKLELK
notes: From mouse immunisation; only variable domains given; also called 20115
- EC50/EC50 3x(SO3)Y [16]: ~10 fold
- fold weaker binding than to sulfotyrosine PSGL-1 42-62 [1]: > 50 fold
- EC50 [17]: ~3000 nM

B5: 16L15 (antibody, V domains shown)
VH: DVKLVESGGGLVKLGGSLKLSCAASGFTFSSYYMSWVRQTPEKRLEWVATISNGGGSTYYPDSVKDRFTISRDNAKNTLYLQMSSLNSEDTAVYYCAKPLYYSNPWFAYWGQGTLVTVSA
VL: DVLLTQTPLSLPVSLGDQASISCRSSQSIVHSNGNTYLEWYLQKPGQSPKLLIYKVSNRFSGVPDRFSGSGSGTDFTLKISRVEAEDLGVYYCFQGSHVPRTFGGGTKLEIK
notes: as for B2
- binding result [18]: no binding (tested: Log M -7.7 (about 20 nM))
- EC50 [19]: 8.83 nM
- EC50 [20]: 3.43 nM

B6: 9F9 (antibody, V domains shown)
VH: EVQLVETGGGLVQPKGSLKLSCAASGFTFNTNAMNWVRQAPGKGLEWVARIRSKSNNYATYYADSVKDRFTISRDDTQSMIYLQMNNLKTEDTGMYYCVRGGSYWYFDVWGAGTTVTVSS
VL: B5 VL with L4M, H31N, R101W
notes: Control anti-PSGL-1 mAb, recombinant; only variable domains given; also called 9F6
- EC50 [19]: 1.72 nM
- EC50 [21]: 2.31 nM

B7: 43B6 (antibody, V domains shown)
VH: EVQLQQSGPDLVKPGALVKISCKASGYSFTAYYIHWVKQSHGKSLEWIGRVNPNTGGTSYNPKFKGKAILNVDKSSSTAYMELRSLTSEDSAVYYCARSGSPYYRYDDWGQGTTLTVSS
VL: ENVLTQSPAIMSASPGEKVTMTCRASSTVNSTYLHWFQQKSGASPKLWIYGSSNLASGVPARFSGSGSGTSYSLTISSVEAEDAATYYCQQYSGYPLTFGAGTTLELK
notes: Control anti-PSGL-1 mAb, recombinant; only variable domains given; also called 43B3
- EC50 (read off the curve) [18]: ~0.4 nM
- binding result [2]: binds
- binding result [3]: binds
- binding result [4]: binds
- binding result [5]: binds
- binding result [6]: binds
- binding result [7]: binds
- binding result [8]: binds
- binding result [9]: binds
- binding result [10]: binds
- binding result [11]: binds
- binding result [12]: binds
- binding result [13]: binds
- binding result [14]: binds
- binding result [21]: no binding
- EC50 [20]: 2.63 nM

B8: 19I01 (antibody, V domains shown)
VH: EVQLVESGGGLVKPGGSRKLSCAASGFTFSDYGMHWVRQAPEKGLEWVAYISSGSSTIYYADTVKGRFTISRDNAKNTLFLQMTSLRSEDTAMYYCARGVDGYWGQGTTLTVSS
VL: DVVMTQTPLSLPVSLGDQASISCRSSQSLVHSNGNTYLHWYLQKPGQSPKFLIYKVSNRFSGVPDRFSGSGSGTDFTLKISRVEAEDLGVYFCSQTTHVPLTFGAGTKLELK
notes: From mouse immunisation; only variable domains given; also called 19101
- EC50 [15]: 2.95 nM
